Reference: US20130189255A1, “FUSIONS AND CONJUGATES OF INSULINOTROPIC AGENTS” (GLAXO GROUP LIMITED, priority 2008, published 2013)
Where two headings read alike, the source gives them in different places.

Experiments:
[1] = mouse, in vivo, 1 mg/kg
Experimental: This was followed by ion exchange chromotography on a Resource S column using a 0-1M salt gradient in 20 mM acetate pH5.0. Fractions containing the desired protein were then combined and buffer exchanged into 100 mM NaCl, 20 mM citrate pH6.2. Protein was filter sterilised, buffer exchanged and endotoxin removed ant tested prior to use in vivo. […] At predose, 0.25, 0.5, 1, 4, 7, 12, 24, 36, 48 and 60 hours after dosing for the iv doses and predose, 0.5, 1, 4, 7, 12, 24, 36, 48 and 60 hours after dosing for the sc doses blood samples were collected by terminal bleed and plasma prepared. Plasma samples were frozen and later defrosted for analysis of DAT0115, DAT0116 or DAT0117 levels as appropriate by solid phase extraction and LC/MS/MS to detect the presence of a fragment of the protein (from the exendin-4 section of the protein). Calculated plasma levels were then used to fit pharmacokinetic parameters using WinNonLin software. Half life after subcutaneous and intravenous administration and bioavailability is outlined in the table below. It was concluded from the results (see table 7 below) that all three compounds show desirable pharmacokinetic parameters in a mouse model of type II diabetes.

[2] = parameters: species or system cynomolgus monkey (Macaca fascicularis); settings: cynomolgus monkey, in vivo, 0.1 mg/kg
Experimental: Briefly, protein was purified using batch absorption to protein L-agarose affinity resin followed by elution with glycine at pH 2.0 and neutralisation woth Tris PH 8.0. This was followed by ion exchange chromotography on a Resource S column using a 0-1M salt gradient in 20 mM acetate pH5.0. Fractions containing the desired protein were then combined and buffer exchanged into 100 mM NaCl, 20 mM citrate pH6.2. Protein was extensively QCed (including SDS-PAGE, mass spec, activity assay:GLP-1R-BA, pH check, osmolarity check), filter sterilised and endotoxin removed. Protein with confimed low endotoxin (<0.05 EU/mg protein) was then used for the in vivo study. Six female cynomolgus monkeys (Macaca fascicularis; Charles River Laboratories BRF, Houston, Tex., Primate Products, Miami, Fla. and/or Covance Research Products, Inc., Alice, Tex.) were used in this study. The monkeys were approximately 2 to 9 years old (with a body weight range of approximately 2 to 5 kilograms) at initiation of dosing. The monkeys were housed individually in stainless-steel cages in an environmentally controlled room(s) (64 F to 84 F; 30 to 70% relative humidity) with a 12-hour light/dark cycle. The female monkeys were offered approximately 6 biscuits twice daily of Monkey Diet #5038 (PMI Nutrition International, Richmond, Ind.) and a daily allotment of fresh fruit. […] Dose was at 0.1 mg/Kg. On the days of dosing, the first feeding occurred within approximately 1 hour post dose for each monkey (extended up to 2.5 hours post dose if study-related procedures required animals to be out of their local housing for an extended period of time). The second feeding was no sooner then two hours following the first feeding. For the purpose of environmental enrichment, additional fruit, legume and/or vegetable (e.g., grapes, baby carrots, peanuts) was provided to each monkey at or around the time of viability check or as a method of reward after acclimation or study-related procedures. Filtered tap water (supplied by Aqua Pennsylvania, Inc. and periodically analyzed) was available ad libitum. Plasma samples (approx 2 ml) were collected from the femoral vessel at predose (0 hour) and nominally at 5 minutes (iv group only), 0.5, 4, 8, 24, 48, 96, 144, 192, 288, 336, 504 and 672 hours after dosing. (PK samples from one of the animals in the iv dose group were only collected to 24 h so this animal has been excluded from the PK fitting). Analysis of samples was by mass spectrometry, and fitting of the data was using WinNonLin fitting software. PK parameters were as follows for iv administration (n=2): T1/2 67 h, MRT 46 h, Vz 327 ml/Kg and Cl 3.3 ml/hr/Kg; and for sc administration (n=3): T1/2 68 h, MRT 98 h, Vz 306 ml/Kg and Cl 3.1 ml/hr/Kg. Bioavailability was calculated as 99%.

[3] = target: HSA (Homo sapiens, UniProt P02768); format: binding
Experimental: The analysis was performed using a streptavidin chip (SA) coated with biotinylated serum albumin. 200-1000 resonance units (RUs) of each serum albumin was immobilised on the chip. Flow cell 1 was uncoated, flow cell 2 was coated with HSA, flow cell 3 was coated with RSA and flow cell 4 was coated with CSA. A range of concentrations of fusion was prepared (in the range 15.6 nM to 2 μM by dilution into BIACORE HBS-EP buffer (0.01M HEPES, pH7.4, 0.15M NaCl, 3 mM EDTA, 0.005% surfactant P20) and flowed across the BIACORE chip.
Affinity (KD) was calculated from the BIACORE traces by fitting on-rate and off-rate curves to traces generated by concentrations of dAb in the region of the KD.

## Exendin 4 (G4S linker)3 DOM7h-14 dAb fusion [DAT0115]
[1]
  Bioavailability: 65%
[1]; iv
  Half-life after intravenous administration: 13.8
[1]; sc
  Half-life after subcutaneous administration: 18.6
[2]
  Bioavailability: 99%
[2]; iv
  Cl: 3.3 mL/h/kg
  MRT: 46 h
  T1/2: 67 h
  Vz: 0.327 L/kg
[2]; sc
  Cl: 3.1 mL/h/kg
  MRT: 98 h
  T1/2: 68 h
  Vz: 0.306 L/kg
[3]
  Kd: 0.6 µM
